The record followed here is PMC3907296, “How a Retrotransposon Exploits the Plant's Heat Stress Response for Its Activation”.

This series deals with HSFA2 (Arabidopsis thaliana, UniProt O80982 1-345). The experiment in a line: competition EMSA; unlabeled HRE fragment, 200-fold excess, competes with labeled LTR; 10 mM Tris pH 7.5, 1 mM EDTA, 0.1 M KCl, 0.1 mM DTT, 5% glycerol, 0.01 mg/ml BSA; RT 30 min; 5% native PAGE, 0.5x TBE. The note with it: protein: recombinant; tags: C-terminal 6xHis (pET-24b, NdeI/XhoI); chain copies: 3; blunt.
Sequence of HSFA2 (O80982 whole entry, the tested form may be a part): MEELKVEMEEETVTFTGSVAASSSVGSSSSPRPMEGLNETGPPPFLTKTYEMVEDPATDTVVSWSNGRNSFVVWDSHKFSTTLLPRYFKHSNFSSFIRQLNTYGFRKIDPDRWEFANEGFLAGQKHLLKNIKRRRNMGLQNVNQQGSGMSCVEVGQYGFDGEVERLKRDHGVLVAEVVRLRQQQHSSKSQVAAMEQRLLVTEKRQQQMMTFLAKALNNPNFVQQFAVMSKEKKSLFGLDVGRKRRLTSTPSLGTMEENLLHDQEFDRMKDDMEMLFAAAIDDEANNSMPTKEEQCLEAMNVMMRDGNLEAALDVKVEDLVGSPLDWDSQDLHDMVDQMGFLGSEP

B1: ONSEN LTR complete HRE, 51 bp (dsDNA)
DNA 1: CCACCTCCTTAAAAGATTCTAGAAATTTTCTAGAATCATCTTCCACCTCCT
DNA 2: AGGAGGTGGAAGATGATTCTAGAAAATTTCTAGAATCTTTTAAGGAGGTGG
For the molecule B1, the binding result was “binds”.
